Values of other authors in publication PMC3713533.

Biological target: VWF73 VWF73 (Homo sapiens) (UniProt P04275)
UniProt P04275, sequence (P04275 1596-1668): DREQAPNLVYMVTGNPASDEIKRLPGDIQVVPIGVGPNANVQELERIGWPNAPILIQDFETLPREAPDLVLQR

- Kd: 136 nM
Substance: ADAMTS13 TSP1 repeat 1 (from UniProt Q76LX8)
